In the nanobody polyreactivity screen of Harvey et al. (2022):

Assay: yeast display, Sf9 membrane polyspecificity reagent, FACS + sequencing; frameworks hold sequencing errors
Procedure, shortened: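 Genes from sorted yeast were amplified by colony PCR, read by MiSeq 2 × 250 sequencing and filtered on CDR length. These cells carried a synthetic nanobody library in Saccharomyces cerevisiae BJ5465 and were sorted by FACS into low and high (top ~1%) gates on anti-HA and streptavidin fluorescence. Polyreactivity is labelled according to the gate of origin.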

Row | Sequence | polyreactivity (PSR sort gate)
1 | QVQHVESGGGLVQAVVSLRLSCAATGRIISYNAMGWYRQAPGKEWELVAAISWVGGSTYYADSVKGRFTISRDIAKNTVYLQMNCLKPEDTAVYYCAKGWYRIKRNDYWGQGTQVTVSS | low polyreactivity
2 | QVQLLESGGGLVQARGSLRLSCAASGRILEGYAMGWYRPAPGKERELVAALSFSTTPTYYADSVKGRFTISRDNAKNTVYLQMYSLKPEDTAVDYCAADSQQSDYDYWGQGSQVTVSS | high polyreactivity
3 | QVQLVESGGGLVQAGGSLRLSCAASGRIFGVYAMGWYRQAPGKERELVATITSGGSTSYADSVKGRFTISRDNAKNTVYLQMNSPKPEDTAVYYCNAPYSFFWQQMNYWGQGTQVTVSS | low polyreactivity
4 | QVQLVESGGGLVQAGGSLRLSCAASGNTTPVNAMGWYRQAPGKERQLVAAITQSGGSTYYADSVKGRFTISRDNAKNTVYLQMNSLKPEDTAVYYCAADYGHYYGLYYWGQGTQVTVSS | low polyreactivity
5 | QVQLVESGGGLVQAGGSLRLSCAASGIIFVTNDMGWYRQAPGKERELVATITWSGGSTYYADSVKGRFTISRDTAKNTVYLQMNSLKPEDTAVYYCAAEKDAHKEDYWGQGSQVTVSS | low polyreactivity
6 | QVQLVESGGGLVQAGGSLRLSCAASGRIFSLYAMGWYRQAPGKERELDAAITWSSGSTYYADSVKGRFTISRDNAKNTVYLQMNSLKPEDTAVYYCAARVFTLLGYSFEYWGQGTQVTVSS | low polyreactivity
7 | QVQLVESGGGLVQAGGSLRLSCAASGRIFDCYAMGWYRQAPRKEREFVASISRRGGSTYYADSVKGRFTISRDNAKNTVYLQMNSLKPEDTAVYYCAADAFFRLDYYYWGQGTQVTVSS | high polyreactivity
8 | QVQLVESGGGLVQAGGSLRLSCAASGSTFGINAMGWYRQAPGKERELVAAISRRGGSTYYADSVKGRFTISRDNAKNSVYLQMNSLKPEDTAVYYCAARYRNHQYDYWGQGTQVTVSS | high polyreactivity
9 | QVQLVESGGGLVQAGGSLRLSCAASGGTFYNYAMGWYRQAPGKERELVAAITYSGGITYYADSVKGRFTISRDNAKNTVYLQMNSLKPEDTAVYYCNTDGINSSVVVVDDYWMDYWGQGTQVTVSS | low polyreactivity
10 | QVQLVESGGGLVQAGGSLRLSCAASGSTFYVYAMGWYRQAPGKERELVAAITTGGSTYYADSVKGRFTISRDNAKNTVYLQMNSLKPEDTAVYYCAADDPDPYDVPSYDYWGQGTQVTVSS | low polyreactivity
11 | QVQLVESGGGLVQAGGSLRLSCAASGITFRVYAMGWYRPAPGKERELVAAITSSGGSTYYADSVKGRFTISRDYAKNTVYLQMNSLKPEDTAVYYCNKVTYGYAYWRYDGYDYWGQGTQVTVSS | low polyreactivity
12 | QVQLVESGGGLVQAGGSLRLSCAASGRTLQAYAMGWYRQAPGKERELVAAINSSGGTTYYADSVKGRFTISRDNAKNTVYLQMNSLKPEDTAVYYCAATYWYHGRYYWYAYDYWGQGTQVTVSS | high polyreactivity
13 | QVQLVESGGGLVQAGGSLRLSCAASGRTFYSNAMGWYRQAPGKERELVAAIRQSGGSTYYADSVKGRFTISRDNEKNSVYLQMNSLTPEDTAVYYCATGRHDSYKGSLYYYWGQGTQVTVSS | high polyreactivity
14 | QVQLVESGGGLVQAGGSLRLSCAASGLIIDGYAMGWSRQAPGKERELVATITVSGTSTYYADSVKGRFTISRDNAKNTVYLQMNSLKPEDTAVYYCDTDRNYGYYFVEYDHDYWGQGTQVTVSS | low polyreactivity
15 | QVQLVESGGGLVQAGGSLRLSCAASGSTFDDNDMGWYRQAPGKERELVAAISWSGGSTTYADSVKGRFTISRDYAKNTVYLQMNSLKPEDTAVYYCAADWYYWGFIFDYWGQGTQVTVSS | high polyreactivity
16 | QVQLVESGGGLVQAGGSLRLSCAPSGIIFAYYAKGWYRQAPVKERELVASISSGGTTKYADSVKGRFTISRDNAKNTVYLQMNSLKPEDTAVYYCAAEHRWRSWDMDYWGQGTQVTVSS | low polyreactivity
17 | QDQLVESGGGLVQAGGRLRLICAAAGLIFVSNAMGWYRQAPGKERELFASISWSGGSTYYADSVKGRFTISRDNAKNTVYLQMNSLKPEDTAVYYCAAAKYVTYLSIYYYWGQGTQVTVSS | high polyreactivity
18 | QVQLVESGGGLVQAGGSLRLSCAASGRTLIVNTMGWYRQAPGKEREFVAAIFSGASTYYADSVKGRFTISRDNAMNTDYLQINSVKPEDTAVYYCAAAVFRWSRYDYWGQGTQVTVSS | low polyreactivity
19 | QVQLVESGGGLVQAGGSLRLSCAASGIIFSTYAMGWYRQAPGKERELVAAITSTGSTNYADSVKGRFTISRDNAKNTVYLQMNSLKPEDTAVYYCAARYAGPSPTDTGHDYWGQGTQVTVSS | low polyreactivity
20 | QVQLVESGGGLVQAGGSLRLSCAASGRTFARYAMGWYRQAPGKERELVAAINRSGGSTYYADSVKGRFTISRDNAKNTVYLQMNSLKPEDTAVYYCNARDPYTYRYSYYYWGQGTQVTVSS | high polyreactivity
21 | QVQLVESGGGLLQAGGSLRLSCAASGRTFYQYAMGWYRKAPGKDRELVAAITTSGRSTYYADSVKGRITISRDNAKNTVYLQMNRLKPEDTAVYYCNKDLSSTIFDYWGQGTQVTVSS | low polyreactivity
22 | QVQLVESGGCLVQAGGSLRLSCAASGSIFPWYAMGWYRQAPGKERELVADISYSGSGTYYADSVKGRFAISRDNGKNNVYLQMTSLKPEDSAVYYCNAQRAEWYPVGRYEYWGQGSQVTVSS | low polyreactivity

Row | Sequence | polyreactivity (PSR sort gate)
23 | QVQLVESGGGLVQAGGSLRLSCAASGIILPYYVMGLYRQAPGKERELVAAISSGGRTYYADSVKGRFTISRDNAKNTVYLQMNSLKPEDTAVYYCNAYFTGKWYDYWGQGTQVTVSS | high polyreactivity
24 | QVQLVESGGGLVQAGGSLRLSCAASGSIFVSYAMGWYSQAPGKERELVAVISYSGVSTYYADSVKGRFTISRDNAKNTVYLQINSLKPEDTAVYYCATRQYGTRHILKYNYWGQGTQVTVSS | low polyreactivity
25 | QVQLVESGGGLVQAGGSLRLSCAASGRIFGYYAMGWYRQAPGKERELVAAISSSDGSTYYADSVKGRFTISRDNAKNTVYLQMNSLKPEDTAVYYCAASYYNWDVYQLSYRYDYWGQGTQVTVSS | low polyreactivity
26 | QVQLVESAGGLVHAGGSLRLSCAASGNIFRWYAMGWYRQAPGKDRELVAAISSGGRTNYADSVKGRFTISRDNALNSVFLQMNSLKPEDTAVFYWYIVAGVTGRFYFWGQGTQVTVSS | low polyreactivity
27 | QVQLVESGGGLVQAGGSLRLSCAASGSTIRYNAMGWYRQAPGKERELVAAISRTGGTTYYADSVKGRFTISRDNAKNTVYLQMNSLKPEDTAVYYCNAVQAPYLRYDYWGQGTQVTVSS | high polyreactivity
28 | QVQLVESGGGLVQAGGSLRLSCAASGSTFSYYDMGWYREAPGKERELVAVITTSGVSTYYADSVKGRFTISRDNAKNTVYLQMNSLKPEDTAVYYCNADYGYDSVVEYDYWGQGTQVTVSS | low polyreactivity
29 | QVQLVESGGGLVQAGGSLRLSCAASGVYAMGWYRQAPGQEREWVAAITSVGSTNYADSVKGRFTISRDNAKNTVYLQMNSLKPEDTAVFYCNTDRDTDELDYWGQGTQVTVSS | low polyreactivity
30 | QVQLVESGGGLVQAGGSLRLICAASGSTFGPYSMGWYRQAPGKEMELVAVITTSGSTNYADSVKGRFTISRDNAKNTVYLQMNSLKPEDTAVYYCAARYRYYGTNRYYYWGQGTQVTVSS | high polyreactivity
31 | QVHLVETGGGLVQAGGSLRLSCAASGRTFYVNAMGWYRQAPWKERELVARITSGGSTYYADSVKGRFTISRDNAKNTVYLQMNSLKPEDTAVYYCAKKYIGYQVWIHSTRRYDYWGHGTQVTVSS | low polyreactivity
32 | QVQLVESGGGLVQAGGSLRLSCAASGLTFKYYAMGWYRQAPGKERELVAAITSTGGRTYYADSVKGRFTISRDNAKNTVYLQMNSLKPEDTAVYYCAKDTHWAYYWGQGTQVTVSS | low polyreactivity
33 | QVQLVESGGGLVQAGGSLRLSCAASGRTFRLYAMGWSRPAPGKERELVAAISSGGSTYYADSVKGRFTISRDNAKNTVYLQMNSLKPEDTAVYYCFAWVYQFGYWGQGTQVTVSS | low polyreactivity
34 | QVQLVESGGGLVQAGGSLRLSCAASGSIFDSYAMGWYRPEPGKERELVAAISSGGSTNYADSVKGRFTISRDNEKNTVYLQMNSLKPEDTAVYYCAADGSLDAYNYWGQGTQVTVSS | low polyreactivity
35 | QVQLVESGGGLVQAGGSLRLSCDASGFTFPSYAMGWYRQAPGKERELVAAISYRGGRTYYADSVKGRFTISRDNAKNTVYLQMNSLKPEDTAVYYCAAAGYAWWGEYEYWGQGTQVTVSS | high polyreactivity
36 | QVQLVESGGGLVQAGGSLRLSCAASGSTFTLYAMGWYRQAPGKERELVATITGSGGSTNYADSVKGRFTISRDNAKNTVYLQMNSLKPEDTAVYYCAADYAVYSFTEFNYWGHGTQVTVSS | high polyreactivity
37 | QVQLVESGGGLVQAGGSLRLSCAASGSTFVFYTMGWYRQAPGKEREFVASISGSGGSTYYADSVKGRFTISRDNAKNTVYLQMNSLKPEDTAVYYCGAGYPYYYWTPYYYWGQGTQVTVSS | high polyreactivity
38 | QVQLVESGGGLVQAGGSLRLSCAASGRIFTTYAMGWYRQAPGKERELVARIRWRGGSTYYADSVKGRFTISRDNAKNTVYLKMNSLKPEDTAVYYCNADKYYGFDYWGQGTQVTVSS | high polyreactivity
39 | QVQLVESGGGLVQAGGSLRLSCAASGSTFDYYTMGWYRQAPGKERELVAAITSGGSTNYADSVKGRFTISRDNAKNTVYLQMNSLKPEDTAVYYCAADEWYNNYNCTTYGPEYDSWGQGTQVTVSS | low polyreactivity
40 | QVQLVESGGGLVQAGGSLRLSCAASGSIFSYYVMGWYRQAPGKERELVARINWSSTSTYYADSVKGRFTISRDNAKNTVYLQMHSLKPEDTAVYYCAAAKRYGRYYEYDYWGQGTQVTVSS | high polyreactivity
41 | QVQLVESGGGLVQAGGSLRLSCAASGLILYWYAMGWYRQAPGKERELVAAISISGGSTYYADSVKGRFTISRDNAKNTVYLQMNSLKPDDTAVYYSAAVYFYSWEGDGDYWGLGTQVTVSS | low polyreactivity
42 | QVQLVESGGGLVQAGGSLRLSCAASGRIFVYYAMGWYRQAPGKERELVASISYSGASTYYADSVKGRFTISRDNAKNTVYLQMNSLKPEDTAVYYCNTDGDDFFHVIYDYWGQGTQVTVSS | low polyreactivity
43 | QVQLVESGGGLVQAGGSLRLTCAASGRTFDQYAMGWYRQAPGKERDLVAAITSGGSTYYADSVKGRFTISRDNAKNTVYLQMNSLKPEDTAVYYCYTDSSFWGYYIAQVNERDYWGQGTQVTVSS | low polyreactivity
